The text below walks through data of paper PMC8409790 (mAbs, 2021).

To fix the notation:
B1: Human single-chain (sc) IL-23 (IL-12p40(23-328)-(GGGGS)x4-IL-23p19(21-189)-TEV-FLAG-8His) (ligand)
chain: IWELKKDVYVVELDWYPDAPGEMVVLTCDTPEEDGITWTLDQSSEVLGSGKTLTIQVKEFGDAGQYTCHKGGEVLSHSLLLLHKKEDGIWSTDILKDQKEPKNKTFLRCEAKNYSGRFTCWWLTTISTDLTFSVKSSRGSSDPQGVTCGAATLSAERVRGDNKEYEYSVECQEDSACPAAEESLPIEVMVDAVHKLKYENYTSSFFIRDIIKPDPPKNLQLKPLKNSRQVEVSWEYPDTWSTPHSYFSLTFCVQVQGKSKREKKDRVFTDKTSATVICRKNASISVRAQDRYYSSSWSEWASVPCSGGGGSGGGGSGGGGSGGGGSAVPGGSSPAWTQCQQLSQKLCTLAWSAHPLVGHMDLREEGDEETTNDVPHIQCGDGCDPQGLRDNSQFCLQRIHQGLIFYEKLLGSDIFTGEPSLLPDSPVGQLHASLLGLSQLLQPEGHHWETQQIPSLSPSQPWQRLLLRFKILRSLQAFVAVAARVFAHGAATLSP
B2: Human IL-23Rα protein (receptor)
chain: GITNINCSGHIWVEPATIFKMGMNISIYCQAAIKNCQPRKLHFYKNGIKERFQITRINKTTARLWYKNFLEPHASMYCTAECPKHFQETLICGKDISSGYPPDIPDEVTCVIYEYSGNMTCTWNAGKLTYIDTKYVVHVKSLETEEEQQYLTSSYINISTDSLQGGKKYLVWVQAANALGMEESKQLQIHLDDIVIPSAAVISRAETINATVPKTIIYWDSQTTIEKVSCEMRYKATTNQTWNVKEFDTNFTYVQQSEFYLEPNIKYVFQVRCQETGKRYWQPWSSLFFHKTPETVPQVTSKAFQHDTWNSGLTVASISTGHLTSDNRGDIG

Common to all, as to assay: SPR
(In general: Surface plasmon resonance follows binding to a sensor surface in real time, without labels.)

For the experiment “Human IL-23Rα protein”, the target named is B2.
Another experiment deals with Human IL-12Rβ1-Fc (human, UniProt P42701).
In experiment [1] the target is B1.

As usually defined, the Kd is the concentration at which binding is half-saturated. A lower Kd goes with tighter binding. Regarding B1, the equilibrium dissociation constant (Kd) worked out at 0.8 nM in the experiment with Human IL-23Rα protein and 19 nM with Human IL-12Rβ1-Fc.

For the molecule B2, the “KD with a saturating amount of tildrakizumab bound to IL-23” value in experiment [1] turned out to be 190 nM.
